These results are taken from paper PMC5705260.

For test [1], the target named is ArtB (Salmonella enterica serovar Typhimurium DT104) (UniProt Q404H3). Kind of test: ion exchange chromatography + SEC.
Test [2] has the same target. As to the kind of experiment: co-purification of co-expressed subunits.
Test [3] has as its target ArtB-His6 (Salmonella enterica serovar Typhimurium DT104) (UniProt Q404H3). Kind of test: crystal structure.
The target in test [4] is PltB-His6 (Salmonella Typhi) (UniProt Q8Z6A3). As to the kind of experiment: crystal structure.

In the case of “ArtB (from UniProt Q404H3 1-141) (natural protein)”, the stoichiometry N in test [1] and in test [2] was 5 in each case.

“ArtB-His6 (from UniProt Q404H3 1-141) (natural protein)” yielded a stoichiometry N in test [3] of 5.

As for “PltB-His6 (from UniProt Q8Z6A3 1-137) (natural protein)”, in test [4], the stoichiometry N was found to be 5.

As a reminder, the stoichiometry N is the number of molecules, sites or subunits per partner or assembly.
